The values that follow come from IntAct's records for PubMed 29892012.

Among the targets are dpyl2_human DPYSL2 (UniProt Q16555); pde9a_human PDE9A (UniProt O76083); rpia_human RPIA (UniProt P49247); nup62_human NUP62 (UniProt P37198); pnma5_human PNMA5 (UniProt Q96PV4).
A further experiment has as its target T1, bend5_human BEND5 (UniProt Q7L4P6).
T1 sequence: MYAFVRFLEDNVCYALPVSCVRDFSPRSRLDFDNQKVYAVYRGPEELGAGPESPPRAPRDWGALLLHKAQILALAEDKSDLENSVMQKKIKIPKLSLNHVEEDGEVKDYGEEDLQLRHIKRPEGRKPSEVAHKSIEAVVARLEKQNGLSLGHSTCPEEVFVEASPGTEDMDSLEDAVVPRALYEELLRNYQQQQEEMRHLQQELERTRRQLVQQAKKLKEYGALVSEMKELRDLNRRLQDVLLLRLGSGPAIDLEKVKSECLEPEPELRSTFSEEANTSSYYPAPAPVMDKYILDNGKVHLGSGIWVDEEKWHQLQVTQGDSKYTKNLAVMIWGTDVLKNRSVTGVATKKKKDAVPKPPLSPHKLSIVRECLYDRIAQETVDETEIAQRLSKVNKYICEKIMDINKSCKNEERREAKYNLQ

Another experiment has as its target T2, traf1_human TRAF1 (UniProt Q13077).
T2 sequence: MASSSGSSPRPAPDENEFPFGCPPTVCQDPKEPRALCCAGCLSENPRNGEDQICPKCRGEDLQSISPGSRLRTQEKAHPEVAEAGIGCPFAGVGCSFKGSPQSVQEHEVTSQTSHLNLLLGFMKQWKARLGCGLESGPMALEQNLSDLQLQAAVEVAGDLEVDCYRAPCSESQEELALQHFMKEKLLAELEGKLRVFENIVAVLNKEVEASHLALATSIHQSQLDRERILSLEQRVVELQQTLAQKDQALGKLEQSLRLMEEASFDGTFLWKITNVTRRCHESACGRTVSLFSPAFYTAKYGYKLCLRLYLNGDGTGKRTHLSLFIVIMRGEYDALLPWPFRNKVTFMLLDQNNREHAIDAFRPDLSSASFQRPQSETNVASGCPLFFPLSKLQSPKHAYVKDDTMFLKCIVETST

Another experiment addresses T3, kctd9_human KCTD9 (UniProt Q7L273).
T3 sequence: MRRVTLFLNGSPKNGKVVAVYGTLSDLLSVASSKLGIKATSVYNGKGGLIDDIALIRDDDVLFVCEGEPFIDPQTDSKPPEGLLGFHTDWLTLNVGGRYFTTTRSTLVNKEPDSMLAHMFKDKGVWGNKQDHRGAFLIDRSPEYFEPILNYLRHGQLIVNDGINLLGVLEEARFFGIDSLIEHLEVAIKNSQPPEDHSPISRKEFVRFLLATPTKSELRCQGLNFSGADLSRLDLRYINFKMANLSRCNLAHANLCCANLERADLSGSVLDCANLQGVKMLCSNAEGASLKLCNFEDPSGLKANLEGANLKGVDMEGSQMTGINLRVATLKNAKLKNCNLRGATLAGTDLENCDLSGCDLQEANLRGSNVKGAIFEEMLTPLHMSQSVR

The target of another experiment is T4, traf4_human TRAF4 (UniProt Q9BUZ4).
T4 sequence: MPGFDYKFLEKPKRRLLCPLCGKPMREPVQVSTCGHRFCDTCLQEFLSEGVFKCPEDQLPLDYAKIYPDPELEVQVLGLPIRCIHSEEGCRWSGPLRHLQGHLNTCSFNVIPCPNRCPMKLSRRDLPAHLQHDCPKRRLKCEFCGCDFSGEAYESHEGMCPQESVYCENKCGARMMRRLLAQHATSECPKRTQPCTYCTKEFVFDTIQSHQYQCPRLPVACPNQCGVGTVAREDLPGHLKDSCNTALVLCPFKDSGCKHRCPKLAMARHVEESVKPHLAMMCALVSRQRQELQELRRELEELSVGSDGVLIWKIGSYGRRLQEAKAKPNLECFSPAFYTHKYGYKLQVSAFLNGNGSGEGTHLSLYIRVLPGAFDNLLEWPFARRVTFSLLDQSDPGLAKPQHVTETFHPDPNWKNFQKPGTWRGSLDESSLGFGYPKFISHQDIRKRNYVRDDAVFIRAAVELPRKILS

A further experiment concerns the target T5, cryaa_human CRYAA (UniProt P02489).
T5 sequence: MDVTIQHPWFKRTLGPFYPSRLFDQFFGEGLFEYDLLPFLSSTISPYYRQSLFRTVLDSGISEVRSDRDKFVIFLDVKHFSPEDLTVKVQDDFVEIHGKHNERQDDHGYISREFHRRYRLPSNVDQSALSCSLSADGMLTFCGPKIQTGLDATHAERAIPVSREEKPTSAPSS

For another experiment, the target named is T6, trim1_human MID2 (UniProt Q9UJV3).
T6 sequence: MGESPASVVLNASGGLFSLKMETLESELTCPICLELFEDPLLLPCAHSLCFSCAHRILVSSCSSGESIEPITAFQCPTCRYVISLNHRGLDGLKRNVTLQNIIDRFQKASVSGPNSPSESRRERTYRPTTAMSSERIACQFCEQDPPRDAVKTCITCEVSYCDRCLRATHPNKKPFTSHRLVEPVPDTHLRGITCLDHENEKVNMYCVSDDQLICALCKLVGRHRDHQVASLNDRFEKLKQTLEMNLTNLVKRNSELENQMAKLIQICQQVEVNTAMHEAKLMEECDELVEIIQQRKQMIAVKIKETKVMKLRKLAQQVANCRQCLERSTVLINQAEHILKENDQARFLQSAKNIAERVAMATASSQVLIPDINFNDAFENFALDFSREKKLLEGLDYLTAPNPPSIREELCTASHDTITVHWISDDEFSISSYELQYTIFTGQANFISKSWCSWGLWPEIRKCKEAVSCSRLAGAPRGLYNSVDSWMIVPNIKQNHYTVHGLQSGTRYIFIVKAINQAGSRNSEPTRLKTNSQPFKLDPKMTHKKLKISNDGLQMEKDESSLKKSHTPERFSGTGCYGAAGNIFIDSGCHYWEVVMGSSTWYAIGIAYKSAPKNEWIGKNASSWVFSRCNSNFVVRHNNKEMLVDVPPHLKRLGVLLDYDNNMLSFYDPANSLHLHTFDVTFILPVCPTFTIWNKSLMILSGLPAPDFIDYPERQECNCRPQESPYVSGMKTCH

Chain of rpia_human RPIA (P49247 whole entry): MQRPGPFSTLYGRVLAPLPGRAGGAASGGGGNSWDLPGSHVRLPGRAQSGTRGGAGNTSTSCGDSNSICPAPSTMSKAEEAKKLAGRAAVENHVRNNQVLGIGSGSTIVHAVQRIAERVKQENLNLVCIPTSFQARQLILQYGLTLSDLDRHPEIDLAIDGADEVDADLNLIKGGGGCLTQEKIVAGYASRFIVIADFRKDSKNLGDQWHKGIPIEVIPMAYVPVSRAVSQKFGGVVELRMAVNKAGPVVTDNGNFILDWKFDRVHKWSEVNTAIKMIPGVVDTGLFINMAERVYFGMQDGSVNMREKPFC
Chain of pnma5_human PNMA5 (Q96PV4 whole entry): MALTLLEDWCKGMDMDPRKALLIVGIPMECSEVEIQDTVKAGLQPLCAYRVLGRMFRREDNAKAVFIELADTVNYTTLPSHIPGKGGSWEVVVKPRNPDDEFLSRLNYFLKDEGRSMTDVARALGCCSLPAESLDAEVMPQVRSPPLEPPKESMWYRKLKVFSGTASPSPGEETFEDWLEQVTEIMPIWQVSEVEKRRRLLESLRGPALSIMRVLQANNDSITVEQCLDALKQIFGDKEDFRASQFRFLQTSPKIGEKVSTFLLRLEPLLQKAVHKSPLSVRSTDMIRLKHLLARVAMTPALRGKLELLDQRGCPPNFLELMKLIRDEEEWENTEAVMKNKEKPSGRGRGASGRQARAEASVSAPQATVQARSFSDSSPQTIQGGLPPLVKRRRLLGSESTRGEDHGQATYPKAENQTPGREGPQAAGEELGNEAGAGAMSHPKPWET
Chain of nup62_human NUP62 (P37198 whole entry): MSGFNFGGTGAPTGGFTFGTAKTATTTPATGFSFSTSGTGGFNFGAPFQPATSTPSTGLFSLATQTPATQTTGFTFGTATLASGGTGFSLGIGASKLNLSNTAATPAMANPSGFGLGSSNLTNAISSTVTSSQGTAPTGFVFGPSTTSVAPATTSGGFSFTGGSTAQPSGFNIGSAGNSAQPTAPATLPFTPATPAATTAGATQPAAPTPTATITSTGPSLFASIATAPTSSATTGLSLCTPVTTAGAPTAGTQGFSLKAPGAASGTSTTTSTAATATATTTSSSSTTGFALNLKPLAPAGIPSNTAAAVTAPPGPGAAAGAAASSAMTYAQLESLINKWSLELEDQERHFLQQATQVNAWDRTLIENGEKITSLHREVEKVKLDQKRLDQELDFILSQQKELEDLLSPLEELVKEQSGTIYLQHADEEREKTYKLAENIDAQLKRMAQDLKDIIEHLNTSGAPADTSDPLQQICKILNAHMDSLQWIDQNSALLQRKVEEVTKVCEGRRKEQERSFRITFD
Chain of pde9a_human PDE9A (O76083 whole entry): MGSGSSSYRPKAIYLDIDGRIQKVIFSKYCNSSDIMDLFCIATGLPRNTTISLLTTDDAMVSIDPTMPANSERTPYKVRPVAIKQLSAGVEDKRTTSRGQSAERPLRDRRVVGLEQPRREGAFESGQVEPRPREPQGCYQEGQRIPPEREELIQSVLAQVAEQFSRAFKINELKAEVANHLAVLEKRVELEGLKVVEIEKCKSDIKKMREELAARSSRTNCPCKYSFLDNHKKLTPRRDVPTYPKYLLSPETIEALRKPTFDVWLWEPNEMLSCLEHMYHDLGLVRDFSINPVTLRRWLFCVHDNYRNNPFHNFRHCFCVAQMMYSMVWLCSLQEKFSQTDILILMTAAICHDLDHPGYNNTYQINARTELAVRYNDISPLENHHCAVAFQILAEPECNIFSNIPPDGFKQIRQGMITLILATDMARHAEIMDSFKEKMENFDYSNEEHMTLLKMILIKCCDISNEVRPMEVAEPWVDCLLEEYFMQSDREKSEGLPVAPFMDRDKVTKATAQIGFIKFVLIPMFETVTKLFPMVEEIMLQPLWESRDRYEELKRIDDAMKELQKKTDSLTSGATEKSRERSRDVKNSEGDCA

With “Golgi reassembly-stacking protein 2 (Homo sapiens) (from UniProt Q9H8Y8) L320R”, the “effect of a mutation on the interaction” value is “with no effect” in the experiment with dpyl2_human DPYSL2; “with no effect” with bend5_human BEND5; “with no effect” in the experiment with traf1_human TRAF1; “with no effect” with pde9a_human PDE9A; “with no effect” with rpia_human RPIA; “disrupting interaction strength” with nup62_human NUP62. Also, the “effect of a mutation on the interaction” value in the experiment with pnma5_human PNMA5, with kctd9_human KCTD9, with traf4_human TRAF4, with cryaa_human CRYAA and in the experiment with trim1_human MID2 was “with no effect” in each case.
